Experimental data: article PMC3900688, “Expression and Purification of Chaperone-Active Recombinant Clusterin” (PLoS ONE, 2014)

B1: wild type clusterin purified from human plasma (natural protein)
chain 1: DQTVSDNELQEMSNQGSKYVNKEIQNAVNGVKQIKTLIEKTNEERKTLLSNLEEAKKKKEDALNETRESETKLKELPGVCNETMMALWEECKPCLKQTCMKFYARVCRSGSGLVGRQLEEFLNQSSPFYFWMNGDRIDSLLENDRQQTHMLDVMQDHFSRASSIIDELFQDRFFTREPQDTYHYLPFSLPHRRPHFFFPKSRIVR
chain 2: SLMPFSPYEPLNFHAMFQPFLEMIHEAQQAMDIHFHSPAFQHPPTEFIREGDDDRTVCREIRHNSTGCLRMKDQCDKCREILSVDCSTNNPSQAKLRRELDESLQVAERLTRKYNELLKSYQWKMLNTSSLLEQLNEQFNWVSRLANLTQGEDQYYLRVTTVASHTSDSDVPSGVTEVVVKLFDSDPITVTVPVEVSRKNPKFMETVAEKALQEYRKKHREE
modifications: glycosylated | glycosylated
notes: clusterin beta-chain, human; joined to the alpha-chain by 5 disulfide bonds; clusterin alpha-chain, human; joined to the beta-chain by 5 disulfide bonds; Disulphide-bonded alpha-beta heterodimer with heterogeneous glycosylation, from pooled donors; also called wtCLU; human plasma clusterin
B2: mammalian cell-expressed recombinant clusterin secreted by stably transfected HEK293 cells (natural protein, human)
chain 1: B1 chain 1
chain 2: B1 chain 2
modifications: glycosylated | glycosylated
notes: clusterin beta-chain, human, from human CLU cDNA in pRcCMV; secreted and cleaved into alpha- and beta-chains; clusterin alpha-chain, human, from human CLU cDNA in pRcCMV; Disulphide-bonded alpha-beta heterodimer, less glycosylated than plasma clusterin; No tag is stated; also called m-rCLU; rCLU

Target: the molecule itself
Assay: SEC; Superose 6 10/300 column in PBS/Az, 0.3 ml/min, A280 monitored; self-association (mixture of oligomers)

Row | Protein | binding result
1 | B1 | binds
2 | B2 | binds
